# Measured values: EP1212366B1
# Experiments:
# [1] = target: human FcγRI (CD64) on cells (human) (UniProt P12314); experiment: cell-based or functional assay
# [2] = target: human FcγRI (CD64) on cells (human) (UniProt P12314); experiment: flow cytometry, fluorescein-conjugated antibody on monocytes
# [3] = target: soluble fusion protein of the extracellular domain of human FcγRI and human IgM heavy chain (sFcγRI-µ) (human) (UniProt P12314); experiment: ELISA on captured sFcγRI-µ, against a nonspecific human IgG1 mAb
substance,measurement,setting,value
M22 Fab' x 32.2 Fab' x M22 Fab' chemically linked trivalent antibody,FcγRI expression on monocytes in whole blood (modulation assay) (% of the level prior to BsAb treatment),[1],50
chemically linked M22 Fab' multimer M22 F(ab')3+,human CD64 surface expression on macrophages of CD64-transgenic mice (M32.2-FITC),[1],< 50 % reduction
humanized anti-FcγRI antibody H22 (KOL VH/REI Vκ mAb),antibody sites per cell (antibody sites per cell),[2],10500
same,percent of binding via the Fv portion,[3],> 95%
murine anti-FcγRI monoclonal antibody M22,antibody sites per cell (antibody sites per cell),[2],10000
